The text below walks through data of paper PMC2756588.

Experiment in all cases: SPOT array
The target in one experiment is T1, Abp1, P15891.
T1 sequence (P15891 535-592, looked up): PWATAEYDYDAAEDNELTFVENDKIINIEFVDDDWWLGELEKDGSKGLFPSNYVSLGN
As to conditions: median of control spots 935.

For another experiment, the target named is T2, Bbc1, P47068.
T2 sequence (P47068 1-78, looked up): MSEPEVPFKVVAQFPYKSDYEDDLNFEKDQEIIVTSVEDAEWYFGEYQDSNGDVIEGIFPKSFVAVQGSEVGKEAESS
Conditions: median of control spots 796.

For the next experiment, the target named is Bem1-1, P29366. As to conditions: median of control spots 4282.
Sequence of Bem1-1, P29366 (P29366 55-141): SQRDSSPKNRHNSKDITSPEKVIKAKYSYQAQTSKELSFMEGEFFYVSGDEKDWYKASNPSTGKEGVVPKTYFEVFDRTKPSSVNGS
For the next experiment, the target named is Bem1-2, P29366. As to conditions: median of control spots 4347.
Sequence of Bem1-2, P29366 (P29366 139-227): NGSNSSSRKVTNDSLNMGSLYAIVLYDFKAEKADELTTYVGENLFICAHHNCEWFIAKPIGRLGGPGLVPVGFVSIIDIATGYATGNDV
The target in another experiment is T3, Boi1, P38041.
T3 sequence (P38041 1-86, looked up): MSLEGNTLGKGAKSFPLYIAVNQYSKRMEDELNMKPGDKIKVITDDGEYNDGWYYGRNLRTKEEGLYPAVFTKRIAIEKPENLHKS
As to conditions: median of control spots 1162.

A further experiment concerns the target T4, Boi2, P39969.
T4 sequence (P39969 32-116, looked up): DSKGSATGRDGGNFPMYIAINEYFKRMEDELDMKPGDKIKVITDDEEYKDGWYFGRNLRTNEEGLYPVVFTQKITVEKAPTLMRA
Conditions: median of control spots 1161.

The target in another experiment is T5, Bud14, P27637.
T5 sequence (P27637 247-328, looked up): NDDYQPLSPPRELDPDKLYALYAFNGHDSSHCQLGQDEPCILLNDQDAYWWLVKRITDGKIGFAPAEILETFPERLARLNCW
As to conditions: median of control spots 956.

The target in a further experiment is T6, Bzz1-2, P38822.
T6 sequence (P38822 568-633, looked up): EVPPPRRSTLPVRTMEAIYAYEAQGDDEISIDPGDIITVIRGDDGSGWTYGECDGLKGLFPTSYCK
As to conditions: median of control spots 4538.

The target in a further experiment is T7, Cdc25, P04821.
T7 sequence (P04821 50-136, looked up): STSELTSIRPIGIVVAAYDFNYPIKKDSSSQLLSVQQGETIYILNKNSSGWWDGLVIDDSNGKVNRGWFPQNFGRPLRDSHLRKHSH
As to conditions: median of control spots 969.

The target in another experiment is T8, Cyk3, Q07533.
T8 sequence (Q07533 1-83, looked up): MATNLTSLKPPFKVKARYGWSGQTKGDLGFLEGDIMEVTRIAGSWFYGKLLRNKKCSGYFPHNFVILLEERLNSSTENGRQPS
As to conditions: median of control spots 1451.

A further experiment deals with T9, Fus1, P11710.
T9 sequence (P11710 432-512, looked up): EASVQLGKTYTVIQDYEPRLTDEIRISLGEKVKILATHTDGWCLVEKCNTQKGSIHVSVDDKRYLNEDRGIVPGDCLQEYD
As to conditions: median of control spots 1200.

A further experiment has as its target T10, Hof1, Q05080.
T10 sequence (Q05080 590-669, looked up): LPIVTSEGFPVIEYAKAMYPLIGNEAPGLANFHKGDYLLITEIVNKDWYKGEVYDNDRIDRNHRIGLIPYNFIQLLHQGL
As to conditions: median of control spots 4086.

In a further experiment the target is T11, Hse1, P38753.
T11 sequence (P38753 208-285, looked up): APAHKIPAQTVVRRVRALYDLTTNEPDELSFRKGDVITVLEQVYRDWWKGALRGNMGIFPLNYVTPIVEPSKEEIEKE
Conditions: median of control spots 1727.

A further experiment deals with T12, Lsb4, P32793.
T12 sequence (P32793 402-468, looked up): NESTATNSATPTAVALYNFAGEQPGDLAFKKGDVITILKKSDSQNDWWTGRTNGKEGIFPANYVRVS
Conditions: median of control spots 397.

For a further experiment, the target named is Myo3, P36006. As to conditions: median of control spots 468.
Another experiment addresses T13, Myo5, Q04439.
T13 sequence (Q04439 1072-1160, looked up): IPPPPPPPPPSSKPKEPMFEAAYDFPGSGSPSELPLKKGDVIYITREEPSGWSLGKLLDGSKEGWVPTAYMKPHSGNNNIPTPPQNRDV
As to conditions: median of control spots 471.

The target in another experiment is T14, Nbp2, Q12163.
T14 sequence (Q12163 103-180, looked up): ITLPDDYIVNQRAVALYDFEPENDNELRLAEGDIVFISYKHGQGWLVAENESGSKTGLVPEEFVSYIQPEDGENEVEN
Conditions: median of control spots 357.

The target in another experiment is T15, Pex13, P80667.
T15 sequence (P80667 295-386, looked up): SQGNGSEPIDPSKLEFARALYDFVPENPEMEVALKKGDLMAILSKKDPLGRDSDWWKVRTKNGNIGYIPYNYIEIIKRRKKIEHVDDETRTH
As to conditions: median of control spots 1341.

Another experiment deals with T16, Pin3, Q06449.
T16 sequence (Q06449 53-122, looked up): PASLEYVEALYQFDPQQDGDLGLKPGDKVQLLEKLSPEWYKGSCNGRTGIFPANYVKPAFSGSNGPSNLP
As to conditions: median of control spots 2171.

In a further experiment the target is Sho1, P40073. As to conditions: median of control spots 1148.
Sequence of Sho1, P40073 (P40073 287-367): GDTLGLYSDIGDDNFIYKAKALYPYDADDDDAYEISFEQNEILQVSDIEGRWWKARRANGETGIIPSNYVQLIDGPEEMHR
The next experiment has as its target T17, Sla1-2, P32790.
T17 sequence (P32790 60-140, looked up): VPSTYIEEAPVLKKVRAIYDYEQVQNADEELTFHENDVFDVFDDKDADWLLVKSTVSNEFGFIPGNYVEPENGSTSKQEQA
Conditions: median of control spots 712.

The next experiment deals with T18, Sla1-3, P32790.
T18 sequence (P32790 344-424, looked up): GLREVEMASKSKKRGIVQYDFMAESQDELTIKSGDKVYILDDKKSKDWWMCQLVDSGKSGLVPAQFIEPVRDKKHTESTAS
As to conditions: median of control spots 5475.

The target of another experiment is T19, Bzz1-1, P38822.
T19 sequence (P38822 478-572, looked up): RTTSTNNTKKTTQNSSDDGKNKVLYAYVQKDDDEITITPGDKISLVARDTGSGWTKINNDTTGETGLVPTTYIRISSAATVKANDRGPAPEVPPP
As to conditions: median of control spots 4446.

The next experiment deals with GST. Conditions: median of control spots 978.
Another experiment addresses T20, Lsb1, P53281.
T20 sequence (P53281 45-122, looked up): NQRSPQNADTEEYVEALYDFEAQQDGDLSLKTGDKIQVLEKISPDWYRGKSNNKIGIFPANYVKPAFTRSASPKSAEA
Conditions: median of control spots 388.

The target of a further experiment is T21, Lsb3, P43603.
T21 sequence (P43603 385-451, looked up): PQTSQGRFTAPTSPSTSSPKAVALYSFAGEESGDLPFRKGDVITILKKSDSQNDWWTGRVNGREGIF
As to conditions: median of control spots 406.

The next experiment has as its target Rvs167, P39743. As to conditions: median of control spots 2707.

Values joined by “and” are separate entries in the source; they are usually repeats but may differ in a detail not shown here. Equal values may be shown once.

Sequence of Rvs167, P39743 (P39743 419-482): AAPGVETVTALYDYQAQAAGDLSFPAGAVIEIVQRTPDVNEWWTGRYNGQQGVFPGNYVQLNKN

B1: unnamed (peptide)
chain: RHLKNIPRIPIFSIL
For the molecule B1, the SPOT intensity in the experiment with Abp1, P15891 was 49 and 31; with Bbc1, P47068 it was 25 and 23; with Bem1-1, P29366, 823 and 2170; in the experiment with Bem1-2, P29366 it was 4830 and 2260; with Boi1, P38041, 14 and 10; in the experiment with Boi2, P39969 it was 3 and 1. Further, the SPOT intensity in the experiment with Bud14, P27637 is 16 and 18; with Bzz1-2, P38822, 394 and 164; in the experiment with Cdc25, P04821, 230 and 113; with Cyk3, Q07533, 1 and 3; with Fus1, P11710, 1870 and 1460; with Hof1, Q05080, 5560 and 3670. Besides, the SPOT intensity is 307 and 687 with Hse1, P38753; 4 and 7 in the experiment with Lsb4, P32793; 14 and 19 in the experiment with Myo3, P36006; 5 and 3 with Myo5, Q04439; 184 and 63 with Nbp2, Q12163; 163 and 113 in the experiment with Pex13, P80667. For the same molecule, the SPOT intensity was 84 in the experiment with Pin3, Q06449; 160 and 101 with Sho1, P40073; 0 with Sla1-2, P32790; 992 and 402 with Sla1-3, P32790.

B2: unnamed (peptide)
chain: LKPPIGRPPKFPKSP
Turning to B2, the SPOT intensity was 133 in the experiment with Abp1, P15891; 18 in the experiment with Bbc1, P47068; 0 with Bem1-1, P29366; 0 with Bem1-2, P29366; 3 with Boi1, P38041; 0 with Boi2, P39969. The SPOT intensity worked out at 0 in the experiment with Bud14, P27637; 0 in the experiment with Bzz1-1, P38822; 0 in the experiment with Bzz1-2, P38822; 0 with Cdc25, P04821; 0 in the experiment with Cyk3, Q07533; 0 with Fus1, P11710. The SPOT intensity with GST was 0; in the experiment with Hof1, Q05080 it was 0; with Hse1, P38753, 1; with Lsb1, P53281, 0; in the experiment with Lsb3, P43603, 3; in the experiment with Lsb4, P32793, 0. The SPOT intensity in the experiment with Myo3, P36006 amounted to 397; in the experiment with Myo5, Q04439, 117; with Nbp2, Q12163, 0; with Pex13, P80667, 4; with Pin3, Q06449 it was 0; with Rvs167, P39743, 0. Moreover, the SPOT intensity with Sho1, P40073 is 24; with Sla1-2, P32790, 0; in the experiment with Sla1-3, P32790 it was 0.

B3: unnamed (peptide)
chain: GPPPPLPPPLFPSSS
As for B3, the SPOT intensity worked out at 6 in the experiment with Abp1, P15891; 0 with Bbc1, P47068; 0 with Bem1-1, P29366; 0 in the experiment with Bem1-2, P29366; 0 with Boi1, P38041; 0 in the experiment with Boi2, P39969. In addition, the SPOT intensity in the experiment with Bud14, P27637 amounted to 0; with Bzz1-1, P38822, 0; with Bzz1-2, P38822, 0; with Cdc25, P04821, 0; with Cyk3, Q07533, 0; with Fus1, P11710, 0. The SPOT intensity in the experiment with GST amounted to 0; in the experiment with Hof1, Q05080, 1690; in the experiment with Hse1, P38753, 0; with Lsb1, P53281 it was 64; in the experiment with Lsb3, P43603, 0; with Lsb4, P32793 it was 10. Moreover, the SPOT intensity with Myo3, P36006 was determined as 575; in the experiment with Myo5, Q04439, 362; with Nbp2, Q12163 it was 0; with Pex13, P80667, 725; with Pin3, Q06449, 0; with Rvs167, P39743, 0. In addition, the SPOT intensity stood at 0 with Sho1, P40073; 0 in the experiment with Sla1-2, P32790; 0 in the experiment with Sla1-3, P32790.

B4: unnamed (peptide)
chain: SPAPIVPREPLRNEP
With B4, the SPOT intensity in the experiment with Abp1, P15891 was 122 and 106; with Bbc1, P47068, 49 and 40; with Bem1-1, P29366, 3190 and 3200; in the experiment with Bem1-2, P29366, 2910 and 3310; in the experiment with Boi1, P38041, 45 and 64; in the experiment with Boi2, P39969 it was 28 and 50. For the same molecule, the SPOT intensity in the experiment with Bud14, P27637 was 184 and 188; with Bzz1-1, P38822 it was 3070 and 3750; in the experiment with Bzz1-2, P38822, 4030 and 3640; in the experiment with Cdc25, P04821 it was 240 and 142; in the experiment with Cyk3, Q07533, 241 and 231; with Fus1, P11710, 227 and 99. Also, the SPOT intensity was 1000 and 337 with GST; 1550 and 3190 with Hof1, Q05080; 2790 and 3860 in the experiment with Hse1, P38753; 46 and 25 with Lsb3, P43603; 114 and 89 with Lsb4, P32793; 122 and 104 with Myo3, P36006. The SPOT intensity with Myo5, Q04439 was 88 and 90; with Pex13, P80667, 403 and 875; in the experiment with Pin3, Q06449 it was 721 and 289; in the experiment with Rvs167, P39743, 2590 and 3300; in the experiment with Sho1, P40073, 138 and 78; with Sla1-3, P32790 it was 3540 and 3050.

B5: unnamed (peptide)
chain: VSKLRSPNTPRRLRK
Turning to B5, the SPOT intensity with Abp1, P15891 is 216 and 273; with Bbc1, P47068 it was 223 and 226; in the experiment with Bem1-1, P29366, 1 and 3; in the experiment with Boi1, P38041, 8 and 4; with Bud14, P27637, 6; with Bzz1-1, P38822 it was 0. Moreover, the SPOT intensity with Cdc25, P04821 was 55 and 39; with Cyk3, Q07533, 2 and 1; in the experiment with GST, 3 and 1; in the experiment with Lsb3, P43603, 72 and 49; with Lsb4, P32793, 206 and 92; in the experiment with Myo3, P36006, 8 and 6. Further, the SPOT intensity with Nbp2, Q12163 was 0; with Pex13, P80667, 3 and 1; with Pin3, Q06449, 5 and 3; with Sho1, P40073, 267 and 126; in the experiment with Sla1-2, P32790 it was 0; with Sla1-3, P32790, 9 and 7.
